Test results from the nanobody polyreactivity screen of Harvey et al. (2022).

Assay: yeast display, Sf9 membrane polyspecificity reagent, FACS + sequencing; frameworks hold sequencing errors
In short: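 Genes from sorted yeast were amplified by colony PCR, read by MiSeq 2 × 250 sequencing and filtered on CDR length. These cells carried a synthetic nanobody library in Saccharomyces cerevisiae BJ5465 and were sorted by FACS into low and high (top ~1%) gates on anti-HA and streptavidin fluorescence. Polyreactivity is labelled according to the gate of origin.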
In the case of “QVQLVESGGGIVQAGGSLRLSCAASGFIFLPYAMGWYRQAPGKERELVARISRSGASTYYADSVKGRFTISRDNAKNTVYLQMNSLKPEDTAVYYCNAVTSWPRRDFDYWGQGTQVTVSS”, the “polyreactivity (PSR sort gate)” value is reported as “high polyreactivity”.
In the case of “QVQLVESGGGIVQAGGSLRLSCAASGFIFRYYAMGWYRQAPGKERELVAAISWSGGSTYYADSVKGRFTISRDNAKNTVYLQMNSLKPEETAVYYCAAEPTGWVWYAGYGYYWGQGTQVTVSS”, the “polyreactivity (PSR sort gate)” value is reported as “high polyreactivity”.
For “QVQLVESGGGIVQAGGSLRLSCAASGFTFGDYVMGWYRPAPGNERELVAAITTSGTRTSYADSVKGRFTISRDNAKNTVFLQMNSLKPEDTAVYYCAAEHTNYYYFWQAHYYWGPGTQVTVSS”, the “polyreactivity (PSR sort gate)” value was “high polyreactivity”.
With “QVQLVESGGGIVQAGGSLRLSCAASGFTFHTYAMGWYRQAPGKERELVAAISYSGGNTYYADSVKGRFTISRDNAMNTVYLQMNSLKPEDTAVYYCAAQSYYRYYWGQGTQVTVSS” the “polyreactivity (PSR sort gate)” value was “high polyreactivity”.
In the case of “QVQLVESGGGIVQAGGSLRLSCAASGFTFNRNAMVWYRQAPGKERELVAAISWSGGSTYYADSVKGRFTISRYNAKNTVYLQMNSLKPEDTAVYYCAKGYRRVYGPFYYWGQGTQVTVSS”, the “polyreactivity (PSR sort gate)” value is reported as “low polyreactivity”.
For “QVQLVESGGGIVQAGGSLRLSCAASGFTFRTYTQGWYRQAPGKERELVAAIRSSGGGTYYADSVKGRFTISRDNAKNTVYLQMNSLKPEDTAVYYCIAVRYNSVGYDFWGQGTQVTVSS”, the “polyreactivity (PSR sort gate)” value was “high polyreactivity”.
In the case of “QVQLVESGGGIVQAGGSLRLSCAASGFTFYLYAMGWYRQAPGKERELVAAISRSGGYTYYADSVKGRFSISRDNAQNTVYLQMNSLKPEDTAVYYCNARWRSGPRAYDYWGQGTQVTVSS”, the “polyreactivity (PSR sort gate)” value is reported as “high polyreactivity”.
In the case of “QVQLVESGGGIVQAGGSLRLSCAASGFTYSDYAMGWYRQAPGKERELVAGISSGGSTNYADSVKGRFTISRDNAKYTVYFQMNSLKQVDTAVYYCAAYLYATWSYFFTWLDFWGQGTKVTVSS”, the “polyreactivity (PSR sort gate)” value is reported as “high polyreactivity”.
In the case of “QVQLVESGGGIVQAGGSLRLSCAASGGTFPRYAKGWYRQAPGKEREFVAAISGSGGSTYYADSVKGRFTISRDNAKNTVLLQMNSLKPEDTAVYYCNKVPVYTPSYYWGQGSQVTVSS”, the “polyreactivity (PSR sort gate)” value is reported as “low polyreactivity”.
With “QVQLVESGGGIVQAGGSLRLSCAASGIIFGYYAMGWYRQAPGKEREMVAAINQDGSSTYYADSVKGRFTISRDYAKNTVYLQMNSLKPEDTAVFYCNARGVPRQDARMGYWGQGTQVTVSS” the “polyreactivity (PSR sort gate)” value was “low polyreactivity”.
For “QVQLVESGGGIVQAGGSLRLSCAASGIIFHFNDMGWYRQAPGKERELVAAITSGGSTNYADSVKGRFTISRDNAKNTVDLQMNSLKPEDTAVYYCAARRGLRLFAYRHGYWGQGTQVTVSS”, the “polyreactivity (PSR sort gate)” value was “low polyreactivity”.
With “QVQLVESGGGIVQAGGSLRLSCAASGIIFLDYVMVWYRQAPGKERELVAAINSGGSTYYADSVKGRFTISRDNAKNTVYLQMNSLIPEDTAVYYCAADDYYKFDYWGQGTQVTLSS” the “polyreactivity (PSR sort gate)” value was “low polyreactivity”.
In the case of “QVQLVESGGGIVQAGGSLRLSCAASGIIFWNYAMGWYRQAPGKERELVAAITDGGSTYYADSVKGRFTISRDNEKNTVYLQMNSLKPEDNAVYYCNTDWAYLSDYWGQGTQVTVSS”, the “polyreactivity (PSR sort gate)” value is reported as “low polyreactivity”.
In the case of “QVQLVESGGGIVQAGGSLRLSCAASGITFGSYVMGWYRQAPGKERELVAAINIGGGTYYADSVKGRFTISRDNAKNTVYLQMISLKPEDTAVYYCARDFYWYYRAARLDYWGQGTQVTVSS”, the “polyreactivity (PSR sort gate)” value is reported as “high polyreactivity”.
In the case of “QVQLVESGGGIVQAGGSLRLSCAASGITFKGYTMGWYRQAPGKERELVATISRGGRTYADSVKGRFTISRDNAKNTVYLQMNSLKPEDTAVYYCAAQAERYGYEYWGQGTQVTVSS”, the “polyreactivity (PSR sort gate)” value is reported as “low polyreactivity”.
With “QVQLVESGGGIVQAGGSLRLSCAASGITLINYAMGWYRQAPGKERELVAAISTSGSSTYYADSVKGRFTISRDNAKNTVYLQMNSLKPEDTAVYYCAAELDVYSLFGYWGQGTQVTVSS” the “polyreactivity (PSR sort gate)” value was “low polyreactivity”.
For “QVQLVESGGGIVQAGGSLRLSCAASGLIFSRNAMGWYRQAPGQERELVAAISTGGSTYYADSVKGRFTISRDNAKNTGYLQMNSLKPEDTAVYYCAAAPGYIYEYWGQGTQVTVSS”, the “polyreactivity (PSR sort gate)” value was “low polyreactivity”.
With “QVQLVESGGGIVQAGGSLRLSCAASGLTFQVNAMGWYRQAPGKERELVAGITFSGGSTYYADSVKGRFTISRDNAKNTVYLQMNSLKPEDTAVYYCAADARFYAYYYWGQGTQVTVSS” the “polyreactivity (PSR sort gate)” value was “low polyreactivity”.
In the case of “QVQLVESGGGIVQAGGSLRLSCAASGLTFRRNAMGWSRQAPGKERELVAAISSGGVRTYYADSVKGRFTISRDNAKNTVYLQMNSLKPEDTAVYYCAKDDLLVVRNVWFDYWGQGTQVTVSS”, the “polyreactivity (PSR sort gate)” value is reported as “low polyreactivity”.
In the case of “QVQLVESGGGIVQAGGSLRLSCAASGNIFGGYAMGWYRQAPGKERELVAAISQRGGITYYADSVKGRFTISRDNAKNTVYLQMNSLKPEDTAVFYCAKRGPYGWYGAYDYWGQGTQVTVSS”, the “polyreactivity (PSR sort gate)” value is reported as “low polyreactivity”.
With “QVQLVESGGGIVQAGGSLRLSCAASGRIFATYAMGWYRQAPGKERELVAAIRSDGNTKYADSVKGRFTISRDNAKNTVYLQMNSLKPEDTAVYYCAAYARYAGVLYDYWGQGTQVTVSS” the “polyreactivity (PSR sort gate)” value was “high polyreactivity”.
For “QVQLVESGGGIVQAGGSLRLSCAASGRIFAYNAMGWYRQAPGKDRELVAAISSGGNTYYADSVKGRFTISRDNAKNTVYLQMYRLKPEDTAVYYCNAGVGWHRYYSNYDYWGQGTQVTVSS”, the “polyreactivity (PSR sort gate)” value was “low polyreactivity”.
For “QVQLVESGGGIVQAGGSLRLSCAASGRIFDRYAMGWYRQAPGTERELVAAITGSGGRTYYADSVKGRFTISRDNAKNTVYLQMNSLKPEDTAVYYCARALGQRGYVYWGQGTQVTVSS”, the “polyreactivity (PSR sort gate)” value was “high polyreactivity”.
In the case of “QVQLVESGGGIVQAGGSLRLSCAASGRIFDWYVMGWYRQAPGKERELVAAINSGVSTKYADSVKGRFTISRDNAKNTVYLQMNSLKPEDTAVYYCAAQSFSDYRRTGRKSSYYYWGQGTLVTVSS”, the “polyreactivity (PSR sort gate)” value is reported as “low polyreactivity”.
In the case of “QVQLVESGGGIVQAGGSLRLSCAASGRIFGIYAMGWYRQAPGKERELVASITDGTITNYADSVKGRFTISRDNAKYTVYLQMNSLKPEDTAVYYCAAGTQAHAYVVRPIEMDYWGQGTQVTVSS”, the “polyreactivity (PSR sort gate)” value is reported as “low polyreactivity”.
With “QVQLVESGGGIVQAGGSLRLSCAASGRIFGYYAMGWYIQAPGNERELVASISSSGGSTYYADSVKGRFTISRDNAKNTVYLQMKSLKPEDTAVYYCNTASNRYQGWRAEFDYWGQGSQVTVSS” the “polyreactivity (PSR sort gate)” value was “low polyreactivity”.
In the case of “QVQLVESGGGIVQAGGSLRLSCAASGRIFRGYGMGWYRQAPGKERELVAAITSRGGSTYYADSVKGRFTISRDNAKNTVYLQMNSLKPEDTAVYYCAAVGVGYPGHKYYYWGQGTQVTVSS”, the “polyreactivity (PSR sort gate)” value is reported as “high polyreactivity”.
With “QVQLVESGGGIVQAGGSLRLSCAASGRIFRSYTMGWYRQAPGKERELVAAISWTGGRTYYADSVKGRFTISRDNAKNTVYLQMNSLKPEDTAVYYCAATNRYYIYDYWGQGTQVTVSS” the “polyreactivity (PSR sort gate)” value was “high polyreactivity”.
In the case of “QVQLVESGGGIVQAGGSLRLSCAASGRIFSKNTMGRYRKAPGKERELVAAIRSRAGSTYYADSVKGRFTISRDNAKNTVYLQMNSLIPEDTAVYYCAVPWFRSVDFDYWGQGTQVTVSS”, the “polyreactivity (PSR sort gate)” value is reported as “low polyreactivity”.
For “QVQLVESGGGIVQAGGSLRLSCAASGRIFVGYAMVWYRQAPGKERELVAAISRGGSTNYADSVKGRFTISRDNAKNTVYLQMNSLKPEDTAVYYCAKTYRTRWWGNGGDFWGQGTQVTVSS”, the “polyreactivity (PSR sort gate)” value was “high polyreactivity”.
For “QVQLVESGGGIVQAGGSLRLSCAASGRIISGYVMGWYRQAPGKERELVAAITRSGGSTNYADSVKGRFTISRDNAKNTVYLQMNSLKPEDTAVYYCNAVGRYYRVANGNYDYWGQGTQVTVSS”, the “polyreactivity (PSR sort gate)” value was “high polyreactivity”.
In the case of “QVQLVESGGGIVQAGGSLRLSCAASGRIIYNYGLGWYRQAPGKERELVARITTGGRTNYADSVKGRFTISRDNAKNTVYVQMNSLKPEDTAVYFCNAVGYHSRWYYYNYDYWGQGTQVTVSS”, the “polyreactivity (PSR sort gate)” value is reported as “low polyreactivity”.
With “QVQLVESGGGIVQAGGSLRLSCAASGRILVSNTMGWYRQAPGKERELVAGIRRGGSTDYADSVKGRFTISRDNAKNTVYLQMNSLKPEDTAVYYCNARYSNGYTKLGYWGQGTQVTVSS” the “polyreactivity (PSR sort gate)” value was “low polyreactivity”.
With “QVQLVESGGGIVQAGGSLRLSCAASGRNFVRNAMGWYRQAPGKERELVAAISGGGGNTYYADSVKGRFTISRDNAKNTVYLQMYSLKPEDTAVYYCNALAYGYWYRYYYWGLGTQVTVSS” the “polyreactivity (PSR sort gate)” value was “high polyreactivity”.
In the case of “QVQLVESGGGIVQAGGSLRLSCAASGRTFLYNAMGWYRQAPGKERELVAAISKSGGSTYYADSVKGRFTISRDNAKNTVYLLMNSLKPEESAVYYCAKVGGYRGRPSFGDWGQGTQVTVSS”, the “polyreactivity (PSR sort gate)” value is reported as “high polyreactivity”.
For “QVQLVESGGGIVQAGGSLRLSCAASGRTFMLYAMGWYRQAPGKERELVASIDRNGGRTYYADSVKGRFTISRDNAKNTVYLQMNSLIPEDTAVYYCAARWYDYGYWGQGTQVTGSS”, the “polyreactivity (PSR sort gate)” value was “high polyreactivity”.
With “QVQLVESGGGIVQAGGSLRLSCAASGRTFVVNDMGWYRQAPGKERELVAAINYNAGSTFYADSVKGRFTISRDNAKNTVYLQMNSLKPEDTAVYYCATVVYGYVEYDYWGQGTEVTVSS” the “polyreactivity (PSR sort gate)” value was “low polyreactivity”.
For “QVQLVESGGGIVQAGGSLRLSCAASGSIFDNAMGWYRQAPGKERELVAAITSGGITNYADSVKGRFTISRDNAKNTVYLQMNSLKPEDTAVYYCNTLSPTQTKYDYWGQGTKVTVSS”, the “polyreactivity (PSR sort gate)” value was “low polyreactivity”.
For “QVQLVESGGGIVQAGGSLRLSCAASGSIFDSYTMGWYRQAPGKERELVATINRSGGSTYYADSVKGRFTISRDTAKNTVYLQMNSLKPEDTAVYYCATVYPYTPYSSWRSKYDYWGQGTQVTVSS”, the “polyreactivity (PSR sort gate)” value was “low polyreactivity”.
In the case of “QVQLVESGGGIVQAGGSLRLSCAASGSIFGFYALGWYRQAPGKERELVAAISNSAGSTFYADSVKGRFTISRDNAKNTVYLQMNSLKPEDTAVYYCAAEGEFSDWQHQYVVYWYDYWGQGTQVTVSS”, the “polyreactivity (PSR sort gate)” value is reported as “high polyreactivity”.
In the case of “QVQLVESGGGIVQAGGSLRLSCAASGSIFRRYATGWYRQAPGKERELVAAISSGGSTYADSVKGRFTISRDNAKNTVYLQMNSLKPEDTAVYYCAVDWAQEDGYWGQGTQVTVSS”, the “polyreactivity (PSR sort gate)” value is reported as “low polyreactivity”.
In the case of “QVQLVESGGGIVQAGGSLRLSCAASGSIFRYNVMGLYRQAPGKERELVAGITRIGGSTYYADSVKGRFTISRDNAKNTVYLQMNSLKQEDTAVYYCGTARFSYPGPFGWLDEYYYWGQGTQVTVSS”, the “polyreactivity (PSR sort gate)” value is reported as “low polyreactivity”.
With “QVQLVESGGGIVQAGGSLRLSCAASGSIFSGNAMGWYRQAPGKERELVAAIDRGGSTYYADSVKGRFTISRDNAKNTVYLQMNRLKPEDTAVYYCAKEYIVYNWAFYYWGQGTQVTVSS” the “polyreactivity (PSR sort gate)” value was “low polyreactivity”.
